The results in this text go back to patent publication US8420776B2, “Ube2G2 binding domain in the ubiquitin ligase gp78 and methods of use thereof” (The United States of America, as Represented by the …, priority 2004, dated 2013).

One assay relates to ERAD substrate CD3-δ. The assay is described as follows: CD3-δ level in co-transfected cells by immunoblotting. It is filed as cell-based. The conditions noted are these: co-transfection with CD3-δ; immunoblot. Here is the method: (§1) Transfections of HT1080, NIH 3T3 and HEK 293T cells were carried out ˜24 hr after plating using Polyfect (Qiagen, Valencia, Calif.) and cells harvested after ˜48 hr. J558 cells were transfected by electroporation using Bio-rad GENE pulser II at settings of 250 v, 950uF. Vector without insert was used to equalize total plasmid. In most experiments 0.15 μg of pEGFP-C1 served as an internal control. For experiments not involving immunoprecipitation, 6×10^5 cells were plated in 6 well plates and cell lysis was with Mammalian Protein Extraction Reagent (Pierce). For immunoprecipitation, 2.4×10^6 cells were seeded in 100 mm dishes and cells were lysed in RIPA buffer (1×PBS, 1% Nonidet P40. 0.5% sodium deoxycholate, 0.1% SDS). Lysis buffers were supplemented with Protease Inhibitor Cocktail (Sigma) and 10 mM iodoacetamide. Supernatants were analyzed after a 10,000×g centrifugation using standard techniques for immunoprecipitation, SDS-PAGE, immunoblotting and ECL. Treatment of cells with MG132 (Sigma) was at 50 μM for eight hr. Cycloheximnide was used at 50 μg/ml. All cells were collected at the end of the six hr chase.
FIG. 7 depicts the stabilization of CD3-δ protein in cells transfected with the G2BD, but not with the G2BD with amino acids 579-584 (of SEQ ID NO:2) mutated. HEK 293T cells were transfected with the ERAD substrate CD3-δ along with the indicated GFP fusions of gp78. The left and right sides are two separate experiments.
To test this, GFP fusions of either a minimal E2 binding domain (GFP-574-611) or a more extended region that includes the C-terminus of gp78 (GFP-574-643) were evaluated (FIG. 21A). […] To assess this further, the C-terminal region of gp78 was fused to the eight amino acid Flag tag. […] Mdm2 is a RING finger E3 for both itself and p53 that is neither an ERAD substrate nor known to utilize Ube2G2 as an E2. […] To establish with certainty that the effect observed with expression of the Ube2G2 binding site is a consequence of binding endogenous E2, and not due to other unanticipated effects, cells were co-transfected with increasing amounts of Ube2G2 (FIG. 21C, lanes 3 and 4). […] These findings clearly establish that the isolated E2 binding site has the potential to markedly alter ERAD of CD3-δ. To ensure the effect observed was not peculiar to one substrate, TCR-α was evaluated (FIG. 21D).
A general note: In western blotting, separated proteins are transferred to a membrane and probed.

Assay [1] concerns gp78. Put plainly: gp78 level in transfected cells by immunoblotting. In kind it is cell-based. The following applies: full-length gp78 forms; immunoblot. Here is the method: as §1, with “All cells were collected at the end of the six hr chase.” left out
(§2) gp78 is degraded in a proteasome-dependent manner, and deletion of the entire cytoplasmic domain results in its stabilization. […] To determine the significance of the RING finger, Cue domain and Ube2G2 binding site on gp78 stability, mutations of each were evaluated within full-length gp78. […]

Assay [2] has as its system gp78. Put plainly: gp78 ubiquitylation in transfected cells (IP anti-gp78, IB anti-ubiquitin). In kind it is cell-based. The following applies: 50 μM MG132 eight hours. How it is done:
FIGS. 20A-20E depict the requirement of multiple domains of gp78 to target itself and a heterologous ERAD substrate. (FIG. 20A) Cells were co-transfected with the indicated forms of full length gp78 together with CD3-δ and lysates analyzed by IB. (B) Cells were transfected with wild type and mutant gp78 plasmids as indicated. Samples were treated with 50 μM MG132 for eight hours, lysates IP'ed with anti-gp78 followed by […] with either antiubiquitin (upper) or anti-gp78 (lower). Arrow in upper panel indicates migration of unmodified gp78. (FIGS. 20C and 20D) Cells were co-transfected with HA-CD3-δ and wild type (WT) or mutant forms of gp78. Cells were treated with cycloheximide (CHX) as indicated. (FIG. 20E) Graphic representation of CD3-δ levels from FIGS. 20C and 20D (fall length gp78 transfections only), Cue-m1, 2 is the average of data shown in FIGS. 20C and 20D.
as §1, with “Lysis buffers were supplemented with Protease Inhibitor Cocktail (Sigma) and 10 mM iodoacetamide.” left out, “Treatment of cells with MG132 (Sigma) was at 50 μM for eight hr. Cycloheximnide was used at 50 μg/ml. All cells were collected at the end of the six hr chase.” left out
as §2

The target of another assay is T1, UbcH5B (Homo sapiens, UniProt P62837).
T1 construct: made in house; host or cells: in vitro translation in wheat germ
T1 sequence (P62837 whole entry): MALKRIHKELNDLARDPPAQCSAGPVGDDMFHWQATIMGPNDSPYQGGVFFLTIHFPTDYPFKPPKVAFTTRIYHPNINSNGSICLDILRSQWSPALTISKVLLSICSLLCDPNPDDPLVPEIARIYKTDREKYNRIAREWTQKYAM
Put plainly: GST pull-down binding of in vitro translated UbcH5B. The following applies: GST fusion pull-down. How it is done: GST fusions were purified from E. Coli. Binding was carried out using equi-molar amount of fusion proteins measured by Commassie blue staining. Generally, 20 picomoles/sample were used. In vitro translated E2 was generated by coupled transcription and translation using 35S methionine in either wheat germ or rabbit reticulocyte lysate. Binding assays using in vitro translated E2 was carried out by incubating GST protein pre-bound to Glutathione-sepharose 4B with […] of ^35S-methionine labeled E2 in binding buffer (25 mM Tris-HCl, pH 7.4; 50 mM NaCl, 5 mM DTT; and 0.5% NP-40) overnight at 4° C. Beads were washed with binding buffer and resolved by SDS-PAGE under reducing conditions. Analysis was by Storm PhosphoImager (Applied Biosystems, Foster City, Calif.). Direct binding assays used wild type His6-MmUbc7 (His6-Ube2G2) and Glutathione-sepharose bound GST fusions. Beadbound GST protein was incubated with 100 ng purified His6-MmUbc7 in binding buffer and washed and eluted as above. After transfer to Hybond-P (Amersham Biosciences) binding was assessed with anti-His6 followed by Enhanced Chemiluminescence ECL; Pierce). Ubiquitin binding studies were performed with binding and washing as above using 1 μg K48 tetra-ubiquitin produced as described (Piotrowski et al., 1997). Detection was by anti-ubiquitin immunoblotting. […]

A further assay addresses T2, Myc-Ube2G2 (Mus musculus, UniProt P60605).
T2 construct: expressed in transfected cells; host or cells: HEK 293T
T2 sequence (P60605 1-165): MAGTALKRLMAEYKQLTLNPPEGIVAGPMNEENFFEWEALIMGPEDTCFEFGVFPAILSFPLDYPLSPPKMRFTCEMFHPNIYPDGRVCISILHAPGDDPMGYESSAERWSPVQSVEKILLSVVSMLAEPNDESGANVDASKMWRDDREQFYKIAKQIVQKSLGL
The assay is described as follows: Co-immunoprecipitation with co-expressed Myc-Ube2G2 in cells. It is filed as cell-based. The conditions noted are these: anti-Myc IP, anti-gp78 IB; MG132 8 hr. Here is the method: as §1
FIG. 5 depicts the results of immunoprecipitation of Ube2G2 (MmUbc7) from HEK 293T cells co-transfected with a plasmid encoding myc-tagged MmUbc7/Ube2G2 together with s plasmid encoding various forms of gp78. HEK 293T cells were transfected with a plasmid encoding myc-tagged MmUbc7/Ube2G2 together with plasmids encoding various forms of gp78. After 48 hours, cells were harvested and co-immuntoprecipitated with an anti-Myc tage. Anti-gp78 was used for detection. “R2M” indicates a mutation of two crucial residues in the RING finger. “T” indicates C terminal truncations at the indicated amino acids. ΔB is the mutation indicated above in FIG. 4 in the context of the full length gp78 and “Cue12M” indicates mutations in the Cue domain of gp78.
To confirm the significance of the Ube2G2 binding site in cells, a variety of mutations and truncations of full-length gp78 were tested for binding of co-expressed Myc-Ube2G2 (FIG. 19A). Cells were treated with the proteasome inhibitor MG132 in an attempt to equalize levels of the various forms of gp78.

B1: gp78Cue-m1, 2: full-length gp78 with mutations in the Cue domain (label Cue-m1, 2 in b279) (protein)
chain: MPLLFLERFPWPSLRTYTGLSGLALLGTIISAYRALSQPEAGPGEPDQLTASLQPEPPAPARPSAGGPRARDVAQYLLSDSLFVWVLVNTACCVLMLVAKLIQCIVFGPLRVSERQHLKDKFWNFIFYKFIFIFGVLNVQTVEEVVMWCLWFAGLVFLHLMVQLCKDRFEYLSFSPTTPMSSHGRVLSLLVAMLLSCCGLAAVCSITGYTHGMHTLAFMAAESLLVTVRTAHVILRYVIHLWDLNHEGTWEGKGTYVYYTDFVMELTLLSLDLMHHIHMLLFGNIWLSMASLVIFMQLRYLFHEVQRRIRRHKNYLRVVGNMEARFAVATPEELAVNNDDCAICWDSMQAARKLPCGHLFHNSCLRSWLEQDTSCPTCRMSLNIADNNRVREEHQGENLDENLVPVAAAEGRPRLNQHNHFFHFDGSRIASWLPSFSVEVMHTTNILGITQASNSQLNAMAHQIQEGGRQVPYHLRLQVDQLTRSVEITTDNILEGRIQVPFPTQRSDSIRPALNSPVERPSSDQEEGETSAQTERVPLDLSPRLEETLDFGEVEVEPSEVEDFEARGSRFSKSADERQRMLVQRKDELLQQARKRFLNKSSEDDAASESFLPLEGASSDPVTLRRRMLAAAAERRLQKQQTS
For B1, the “effect on CD3-δ level (stabilization)” value with ERAD substrate CD3-δ was “marked increase in CD3-δ”. In addition, the “gp78 level compared to wild type” value in the assay on gp78 [1] is on record as “increased gp78”. In addition, the “gp78 ubiquitylation (ubiquitin immunoreactivity)” value with gp78 [2] is “dramatic decrease in ubiquitin immunoreactivity”.

B2: AO7: GST fusion of the RING finger and surrounding regions of the unrelated E3 enzyme AO7 (protein)
chain: QIHKISQALGHVAKEGLGTAMLYELIEKGKEILTDNNIPHGQCVICLYGFQEKEAFTKTPCYHYFHCHCLARYIQHMEQELTTQEQEQERQHVVTKQKAVGVQCPVCREPLVYDLASLKAAPEPQQPMELYQPSAESLRQQEELKLLYQRQQEKGGIIDLEAERNRYF
modifications: left off: a dimerising Fc or GST
On to B2, for which the “binding to in vitro translated UbcH5B” value with UbcH5B is on record as “did bind”.

B3: gp78E2-m2: full-length gp78 with residues 579-584 mutated (label E2-m2 in b279) (protein)
chain: MPLLFLERFPWPSLRTYTGLSGLALLGTIISAYRALSQPEAGPGEPDQLTASLQPEPPAPARPSAGGPRARDVAQYLLSDSLFVWVLVNTACCVLMLVAKLIQCIVFGPLRVSERQHLKDKFWNFIFYKFIFIFGVLNVQTVEEVVMWCLWFAGLVFLHLMVQLCKDRFEYLSFSPTTPMSSHGRVLSLLVAMLLSCCGLAAVCSITGYTHGMHTLAFMAAESLLVTVRTAHVILRYVIHLWDLNHEGTWEGKGTYVYYTDFVMELTLLSLDLMHHIHMLLFGNIWLSMASLVIFMQLRYLFHEVQRRIRRHKNYLRVVGNMEARFAVATPEELAVNNDDCAICWDSMQAARKLPCGHLFHNSCLRSWLEQDTSCPTCRMSLNIADNNRVREEHQGENLDENLVPVAAAEGRPRLNQHNHFFHFDGSRIASWLPSFSVEVMHTTNILGITQASNSQLNAMAHQIQEMFPQVPYHLVLQDLQLTRSVEITTDNILEGRIQVPFPTQRSDSIRPALNSPVERPSSDQEEGETSAQTERVPLDLSPRLEETLDFGEVEVEPSEVEDFEARGSRFSKSADERAAAGGGRKDELLQQARKRFLNKSSEDDAASESFLPLEGASSDPVTLRRRMLAAAAERRLQKQQTS
As for B3, the “E2 association of full-length gp78 forms with co-expressed Myc-Ube2G2” value with Myc-Ube2G2 was “loss of E2 binding”. Further, the “effect on CD3-δ level (stabilization)” value with ERAD substrate CD3-δ is “neither significantly stabilized CD3-δ nor enhanced its loss”. Further, the “gp78 level compared to wild type” value in the assay with gp78 [1] is given as “increased gp78”. Besides, the “gp78 ubiquitylation (ubiquitin immunoreactivity)” value in the assay on gp78 [2] is on record as “dramatic decrease in ubiquitin immunoreactivity”.
